Test results as given in patent publication WO2007124463A1 (dated 2007).

T1: mouse GLP-1 receptor (mouse, UniProt O35659 22-463)
T1 sequence (looked up): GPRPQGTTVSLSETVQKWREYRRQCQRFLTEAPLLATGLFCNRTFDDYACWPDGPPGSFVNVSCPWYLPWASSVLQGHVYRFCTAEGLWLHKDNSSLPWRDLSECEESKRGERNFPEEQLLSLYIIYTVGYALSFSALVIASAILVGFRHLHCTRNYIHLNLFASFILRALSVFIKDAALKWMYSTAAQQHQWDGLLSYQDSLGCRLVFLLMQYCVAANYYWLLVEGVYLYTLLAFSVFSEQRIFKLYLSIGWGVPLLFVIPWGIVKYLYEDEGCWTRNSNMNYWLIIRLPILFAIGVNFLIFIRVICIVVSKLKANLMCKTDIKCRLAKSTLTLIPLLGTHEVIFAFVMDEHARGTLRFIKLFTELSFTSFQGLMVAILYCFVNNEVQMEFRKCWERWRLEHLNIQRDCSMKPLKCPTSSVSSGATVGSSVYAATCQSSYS

B1: AG159 fully human anti-glucagon monoclonal antibody (antibody, V domains shown, not shown: a dimerising Fc or GST)
VH: QVQLVESGGGVVQPGRSLRLSCAASGFTFSSYGMHWVRQAPGKGLEWVAVIYYDGSNKYYADSVKGRFTISRDITKNTLYLQMNSLRAEDTAVYYCARASRGFDYWGQGTLVTVSS
VL: EIVLTQSPATLSLSPGDRATLSCRASQSVSSYLAWYQQKPGQAPRLLISDASNRATGIPARFSGSGSGTDFTLTISSLEPEDFAVYYCQQRSNWITFGQGTRLEIKR
notes: also called AGl 59; AG159 Ab
B2: GLP(A2G)-AG159LC:AG159 IgG2 (other)
light: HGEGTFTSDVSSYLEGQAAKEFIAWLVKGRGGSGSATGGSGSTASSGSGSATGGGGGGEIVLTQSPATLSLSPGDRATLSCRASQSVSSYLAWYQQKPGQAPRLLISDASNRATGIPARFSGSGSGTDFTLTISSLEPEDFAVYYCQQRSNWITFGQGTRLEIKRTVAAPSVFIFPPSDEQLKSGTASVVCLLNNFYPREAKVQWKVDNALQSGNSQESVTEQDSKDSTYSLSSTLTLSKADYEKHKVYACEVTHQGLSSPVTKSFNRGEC
heavy: B1 VH
notes: GLP-1 peptide-antibody fusion; also called GLP(A26)-AG159LC:AG159 IgG2; not shown: which one cannot be told, Tab
B3: AG159LC:GLP(A2G)-AG159 IgG2 (other)
light: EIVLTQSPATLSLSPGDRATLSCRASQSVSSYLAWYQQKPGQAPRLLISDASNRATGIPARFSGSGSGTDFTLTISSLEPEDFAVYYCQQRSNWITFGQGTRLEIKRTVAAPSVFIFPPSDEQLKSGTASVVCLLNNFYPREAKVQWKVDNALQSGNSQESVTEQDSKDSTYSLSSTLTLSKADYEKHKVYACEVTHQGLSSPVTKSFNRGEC
heavy: HGEGTFTSDVSSYLEGQAAKEFIAWLVKGRGGSGSATGGSGSTASSGSGSATGGGGGGQVQLVESGGGVVQPGRSLRLSCAASGFTFSSYGMHWVRQAPGKGLEWVAVIYYDGSNKYYADSVKGRFTISRDITKNTLYLQMNSLRAEDTAVYYCARASRGFDYWGQGTLVTVSS
notes: GLP-1 peptide-antibody fusion; It was produced in CHO cells; also called GLP(A2G)-AG159 HC; AG159LC:GLP-1-AG159 IgG2; not shown: human IgG2 heavy chain constant region

What was measured:
[1] = biological target: T2, glucagon (UniProt P01275 53-81); assay: cell-based or functional assay
[2] = biological target: T2, glucagon; assay: inhibition of 200 pM 125I-glucagon binding to crude membranes of cells expressing the glucagon receptor, dose range of AG159
[3] = biological target: T3, human GLP-1 receptor (human, UniProt P43220 24-463); assay: cell-based or functional assay
[4] = biological target: T1, mouse GLP-1 receptor; assay: cell-based or functional assay
[5] = biological target: T3, human GLP-1 receptor; assay: displacement of 0.2 nM 125I-GLP-1 from membranes of CHOK1 cells expressing human GLP-1 receptor

T2 sequence (P01275 53-81): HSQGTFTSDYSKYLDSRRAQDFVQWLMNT

| IC50 of neutralization of glucagon stimulated luciferase reporter activity (cells expressing recombinant glucagon receptor, 0.1 nM glucagon) [1] | IC50 [2] | EC50 of activation, GLP-1R luciferase reporter assay [3] | EC50 of activation, GLP-1R luciferase reporter assay [4] | IC50 [5] | Binder |
| --- | --- | --- | --- | --- | --- |
| 4 nM | 0.2 nM |  |  |  | B1 |
|  |  | 0.1 nM | 5 nM | 5 to 10 nM | B2 |
|  |  | 0.1 nM | 5 nM | 5 to 10 nM | B3 |
